What was measured:
Assay in all cases: purified protein
Type in all cases: biochemical, Cereibacter sphaeroides
Conditions in all cases: 0.2 mM dithionite-reduced benzyl viologen as electron donor, 100 mM MES pH 6.0, anaerobic
C[S+](C)[O-] [1] = system: T1, C[S+](C)[O-]
T1 construct: mature periplasmic enzyme, TAT signal peptide cleaved; N-terminal 6His-TEV site (ENLYFQ) kept; plasmid pSM196 in R. sphaeroides dmsA- strain; monomer; molybdenum cofactor

C[S+](C)[O-] [2] = system: T2, C[S+](C)[O-]
T2 construct: mature enzyme expressed without TAT signal peptide; N-terminal 6His-TEV site kept; plasmid pSM181 in R. sphaeroides dmsA- strain

C[S+](C)[O-] [3] = system: T3, C[S+](C)[O-]
T3 construct: mature enzyme, TAT signal peptide cleaved; N-terminal 6His tag cut off by TEV protease, GHM left at N-terminus; pSM196 in R. sphaeroides dmsA- strain; monomer

Substance: YedY, N-ter tag (+SS) (Cereibacter sphaeroides f. sp. denitrificans)
- Km (C[S+](C)[O-] [1]): 71 mM

Substance: YedY, N-ter tag (-SS) (Cereibacter sphaeroides f. sp. denitrificans)
- Km (C[S+](C)[O-] [2]): 43 ± 6 mM

Substance: YedY, No tag (+SS) (Cereibacter sphaeroides f. sp. denitrificans)
- Km (C[S+](C)[O-] [3]): 61 ± 7 mM

Source: publication PMC4228395, “Detrimental effect of the 6 His C-terminal tag on YedY enzymatic activity and influence of the TAT signal sequence on YedY synthesis” (BMC Biochemistry, 2013)
